The values below come from US20150201663.

The data set has as its target T1, E(Edans)-AAHAAK-(Dabcyl)-NH2 (not fully specified).
T1 chain: AAHAAK

B1: aspergillopepsin II (An01g00530) (protein)
chain: EDYSSNWAGAVLIGDGYTKVTGEFTVPSVSAGSSSSSGYGGGYGYYKNKRQSEEYCASAWVGIDGDTCETAILQTGVDFCYEDGQTSYDAWYEWYPDYAYDFNDITISEGDTIKVTVEATSKSSGSATVENLTTGQSVTHTFSGNVEGDLCETNAEWIVEDFESGDSLVAFADFGSVTFTNAEATSDGSTVGPSDATVMDIEQDGTVLTETSVSGDSVTVTYV
On to B1, for which the “enzyme activity in relative fluorescent units (rfu) per minute per mg of protein; cleavage of FRET peptide at pH 4” value is “yields by the highest rfu value for aspergillopepsin II”; the “mass spectrometry of the substrate's cleavage fragments (E(Edans)-AAH and AAK-(Dabcyl)NH2)” value is “aspergillopepsin II cleaves histidine at the C-terminal in the E(Edans)-AAHAAK-(Dabcyl)NH2 substrate”.
